Results: patent US10406197B2, “Substances and methods for the use in prevention and/or treatment in Huntington's disease” (AFFIRIS AG, priority 2014, dated 2019)

B1: M1D1: monoclonal antibody, mouse IgM, generated using peptide p7564 as immunogen; VH/VL SEQ ID No. 64/65 (antibody)
VH: MDFGLSWVFFVVFYQGVHCEVQLVESGGGLVQPKGSLKLSCAASGFTFNTYAMNWVRQAPGKGLEWVARIRSKSNNYATYYADSVKDRFTISRDDSQSMLYLQMNNLKTEDTAMYYCVRHGEYGNPWFAYWGQGTLVTVSAESQSFPNVFPL
light: MKLPVRLLVLMFWIPASSSDVVMTQTPLSLPVSLGDQASISCRSSQSLVHSNGNTYLHWYLQKPGQSPKLLIYKVSNRFSGVPDRFSGSGSGTDFTLKISRVEAEDLGVYFCSQSTHVPYTFGGGTKLEIKRADAAPTVSIFPPSSEQLTSGGASVVCFLNNFYPK
modifications: antibody sequence
B2: PRR13: monoclonal antibody, mouse IgG2a, generated by hybridoma technique using peptide p6773 as immunogen; VH/VL SEQ ID No. 62/63 (antibody)
VH: MGWSWVMLFLLSGTGGVLSEVQLQQSAPELVKPGASVKMSCKASGYSFTDFYMKWVKQSHGKGLEWIGDIDPKNGDTFYNQKFKGRATLTVDKSSSTAYMQLNSLTTEDSAVYYCATYYGYTMDYWGQGTSVTVSSAKTTAPSVYPLAPVCGDTTGSSVTLGCLVKGYF
light: MDFQVQIFSFLLISASVIMSRGQIVLTQSPAIMSASLGERVTMTCTASSSVTSSYLHWYQQKPGSSPKLWIYSTSNLASGVPARFSGSGSGTSYSLTISSMEAEDAATYYCHQYRRPPRTFGGGTKLEIKRADAAPTVSIFPPSSEQLTSGGASVVCFLNNFYPR
modifications: antibody sequence
B3: C6-17: monoclonal antibody, mouse IgG2a, generated by hybridoma technique using peptide p7543 as immunogen; VH/VL SEQ ID No. 60/61 (antibody)
VH: MGWSCIMLFLLSGTAGVLSEVQLQQSGPELVKPGASVKISCKTSGYTFTEYTMHWVKQSHGKSLEWIGGINPNNGGTRYNQKFKGKATLTVDRSSSTAYMELRSLTSEDSAVYYCASLDGRDYWGQGTTLTVSSAKTTAPSVFPLA
light: MVLMLLLLWVSGTCGDIVMSQSPSSLAVSAGEKVTMSCKSSQSLLNSRTRKNYLAWYQQKPGQSPKLLIYWASTRESGVPDRFTGSGSGTDFTLTISSVQAEDLAVYSCKQSYNLLTFGAGTKLELKRADAAPTVSIFPPSSEQLTSGGASVVCFLNNFYPK
modifications: antibody sequence

Experiments:
[1] = biological target: T1, recombinant Huntingtin fragment with free aspartic acid 586 at the C-terminus (HTT586) (Homo sapiens, UniProt P42858); assay: Protein ELISA with recombinant Huntingtin HTT586 versus HTT610; format: binding; settings: protein capture ELISA, normalized to mAB 2166
T1 construct: recombinant Huntingtin fragment with free aspartic acid 586 at the C-terminus
Procedure: (§1) Binding of antibodies to N-terminal fragment HTT610 was determined by a standard protein capture ELISA procedure using Maxisorb™ ELISA plates (Thermo; CatNr. 439454), coated with 50 μl of a 1:5000 rabbit anti V5 mAB (Sigma, CatNr. V8137), blocking with blocking buffer (PBS, 1% BSA, 0.1% Tween 20), capturing of recombinant Huntingtin from HEK cell extracts (100 ng/μl total protein) followed by incubation with several dilutions of mouse anti HTT sera (1:100; 1:300 and 1:900) or with mAB2166 as reference (diluted 1:2000; Millipore, Cat Nr. MAB2166) for 1 hour at RT. ELISA incubations, washing and detection procedures were performed according to standard procedures.
FIG. 12: mAB M1D1 specifically recognizes recombinant Huntingtin fragment with free aspartic acid 586 at the C-terminus stronger than uncleaned recHTT610. Protein ELISA (performed as in Example 1) using recombinant Huntingtin with 610 and 586 amino acids length (HTT610 and HTT586, respectively). Values indicate the ratio of the mAB M1D1 signal (OD; protein capture ELISA as explained in Example 1) to the mAB 2166 control antibody signal. Values were normalized to reference mAB 2166 recognizing an internal epitope present in both fragments as protein loading control.

[2] = test system: Huntingtin-derived peptides (p6773, p7564, p6776 and caspase region 586 peptides); assay: Peptide ELISA of hybridoma supernatants and monoclonal antibodies; format: binding, human
Procedure: Vaccine-induced immune responses in mice were determined by ELISA using heparin as anticoagulant. ELISA plates (Nunc Maxisorb) were coated with maleimide activated BSA as carrier to which Cystein containing peptides were coupled via stable thioether bonds. For titrations, plasma dilutions were added and peptide-specific antibodies were quantified by biotinylated anti-mouse IgG (Southern Biotech, CatNr. 1034-08) as detection antibody combined with Streptavidin-POD (Roche, CatNr. 1089153) and subsequent color reaction using ABTS. EC50 values were determined using curve fitting with a 4-parameter logistic using GraphPad Prism (GraphPad Software).
For the production and isolation of monoclonal antibodies, the ClonaCell-HY Hybridoma Cloning Kit (STEMCELL technologies, CatNr. 28411) was used according to the instructions of the manufacturer. In brief, hybridoma fusions were performed with myeloma cell line SP2-0 under HAT selection and supernatants were initially screened by peptide ELISA using the immunization peptide, respectively, and an irrelevant control peptide for background determination. […] Selected colonies were picked and analyzed by DNA sequencing on an ABI3130xl Genetic Analyzer.

[3] = test system: bone marrow derived primary mouse macrophages; assay: In vitro phagocytosis assay; format: cell-based; settings: 5 ng/μl antibodies; p9305 beads for PRR13, p9304 beads for C6-17; versus isotype control mouse IgG2a
Procedure: Isolation and in vitro differentiation of macrophages was essentially performed as described e.g. in Zhang et al. 2008 [PMID: 19016445]. In brief, tibia- and femur-derived bone marrow cells from 8 to 12 weeks old BALB/c mice were divided onto 2-3 10 cm-cell culture dishes at a density of 20-30×10^6 cells per dish, differentiated 4 days in RPMI/10% FCS+P/S in the presence of 20 ng/ml M-CSF (RD-Systems, Cat-No: 416-ML-010), redistributed at day 5 into 24-well tissue culture plates at a density of 150.000 cells/well until day 9. 24 hrs before phagocytosis, cells were starved in 500 μl RPMI-media+10% FCS+P/S in absence of M-CSF. […] Antibody-coated fluorescent peptide-beads were subsequently added to differentiated macrophages for 1 hr at 37° C. (in a volume of 200 ul containing 0.5 ug beads/well) allowing for in vitro uptake by phagocytosis. After washing and scraping the cells in ice cold PBS, cells were washed in FACS-Buffer (1×PBS+1% BSA) and analysed for fluorescence signal by standard FACS procedure.

[4] = test system: caspase 6 cleavage of target peptide spanning caspase region 586 of Huntingtin; assay: In vitro caspase 6 cleavage inhibition assay; format: biochemical, human; settings: affinity purified polyclonal antibodies 3 ng/μl, mAB C6-17 10 ng/μl; no protection = 100%
Procedure: Caspase 6 inhibition assays were performed using Maxisorb ELISA plates (Thermo; 439454) whereby 50 μl of 20 nM BSA-coupled peptide (as indicated in FIG. 18) was coated for 1 hour at RT followed by a one hour treatment with 150 μl blocking buffer (PBS, 1% BSA, 0.1% Tween 20), incubation for 1 hour at RT with affinity purified polyclonal sera (3 ng/μl) or affinity purified mABs (10 ng/μl) as indicated, respectively. After several washes with washing buffer (PBS, 0.1% BSA, 0.1% Tween 20), 5 U Caspase 6 enzyme (Enzo; BML SE170-5000) diluted in 1× Caspase 6 Buffer (BioVision; 1068-80) was added to each well and incubated for 30 min at 37° C. Quantification of the newly exposed epitope generated by caspase 6 peptide cleavage that reflected the extent of caspase accessibility was performed by ELISA as described in Example 1 using peptide p7564-induced antibodies for detection of the free C-terminal aspartic acid-containing epitope.

[5] = biological target: T2, recombinant 610 amino acids N-terminal Huntingtin fragment (recHTT610) (Homo sapiens, UniProt P42858, DUP37-38); assay: Protein capture ELISA against recHTT610; format: binding; settings: recHTT610 capture ELISA of preselected mAB candidates
T2 construct: the N-terminal 610 aminoacids of human Huntingtin protein extended by two C-terminal V5 tags; made in house; host or cells: HEK293 freestyle cells, transient transfection with precHTT610; NP-40 lysate captured on an anti-V5 coated plate
Procedure: A DNA covering the coding region of the N-terminal 610 aminoacids of human Huntingtin protein extended by two C-terminal V5 tags were synthesized and cloned via XbaI and BamHI restriction sites into eukaryotic expression vector pCDH-EF1-MCS IRES Puro (SBI; CatNr. CD532A1) yielding plasmid precHTT610. Cloning procedures were performed according to standard molecular biology procedures essentially as indicated by manufacturers including restriction digestions and ligation reactions (NEB Quick ligase kit; CatNr. M2200L), bacterial transformation followed by clone selection and analysis. […] Protein concentrations were determined using Qubit (Invitrogen; CatNr.Q32866) according to the manufacturer's instructions.
as §1, with “ELISA incubations, washing and detection procedures were performed according to standard procedures.” left out

T2 sequence (P42858 with tags, fused parts or gaps DUP37-38): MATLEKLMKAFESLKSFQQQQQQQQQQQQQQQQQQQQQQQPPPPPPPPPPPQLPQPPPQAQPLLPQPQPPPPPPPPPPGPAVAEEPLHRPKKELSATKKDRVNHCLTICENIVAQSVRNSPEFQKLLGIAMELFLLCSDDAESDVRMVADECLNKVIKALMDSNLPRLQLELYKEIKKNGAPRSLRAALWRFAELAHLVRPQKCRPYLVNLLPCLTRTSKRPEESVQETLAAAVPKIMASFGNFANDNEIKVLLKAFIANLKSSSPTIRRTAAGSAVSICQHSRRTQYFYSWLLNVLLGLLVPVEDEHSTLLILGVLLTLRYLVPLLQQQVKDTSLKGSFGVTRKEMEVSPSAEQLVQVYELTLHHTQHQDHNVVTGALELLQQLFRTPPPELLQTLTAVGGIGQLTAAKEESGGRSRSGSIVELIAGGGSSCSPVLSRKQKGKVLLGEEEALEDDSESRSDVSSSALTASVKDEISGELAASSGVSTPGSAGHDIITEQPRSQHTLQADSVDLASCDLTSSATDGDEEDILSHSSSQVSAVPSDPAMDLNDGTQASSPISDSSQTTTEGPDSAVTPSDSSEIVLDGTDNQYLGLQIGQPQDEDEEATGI
T1 sequence (P42858 1-584): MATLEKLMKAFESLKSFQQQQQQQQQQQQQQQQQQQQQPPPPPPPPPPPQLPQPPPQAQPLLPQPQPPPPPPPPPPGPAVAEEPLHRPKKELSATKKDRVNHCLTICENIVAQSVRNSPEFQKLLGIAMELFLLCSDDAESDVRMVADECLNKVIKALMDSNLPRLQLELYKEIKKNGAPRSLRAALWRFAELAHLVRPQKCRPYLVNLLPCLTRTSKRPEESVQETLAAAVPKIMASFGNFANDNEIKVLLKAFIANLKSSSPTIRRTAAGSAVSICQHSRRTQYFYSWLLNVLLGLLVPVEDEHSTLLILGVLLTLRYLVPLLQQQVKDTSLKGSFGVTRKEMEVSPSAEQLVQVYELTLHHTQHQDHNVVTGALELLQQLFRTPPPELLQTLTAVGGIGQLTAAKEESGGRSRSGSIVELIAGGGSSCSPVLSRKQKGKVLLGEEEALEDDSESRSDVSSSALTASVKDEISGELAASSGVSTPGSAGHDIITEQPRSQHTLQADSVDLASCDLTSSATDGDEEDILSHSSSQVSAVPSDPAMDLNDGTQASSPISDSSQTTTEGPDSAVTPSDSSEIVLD

Molecule	recognition of HTT586 versus recHTT610 (ratio of mAB signal to mAB 2166 control signal) [1]	recognition of caspase region 586 peptides (OD) ([2]; mAB concentration 1 ng/μl, peptides p7564, p7562, p7552, p7541, p7567, p7568, p7605, p6777)	p7564 to p6776 OD signal ratio ([2]; specificity against cleaved peptide p7564, preselected mABs)	phagocytosis of peptide-coated beads (FACS) [3]	% cleavage of target peptide [4]	signal to noise ratio (recHTT610-specific signal : HEK ctrl extracts) [5]
B1	stronger	recognizes Huntingtin peptides from the caspase 6 cleavage region of at least 7AA length containing free C-terminal Aspartic Acid	most favorable	–	–	–
B2	–	–	–	increased phagocytosis of beads	–	–
B3	–	–	–	increased phagocytosis of beads	reduce cleavage	best signal to noise ratio
